Patent US20140220033A1, “Administration of an Anti-Activin-A Compound to a Subject” (Santa Maria Biotherapeutics, Inc., priority 2013, published 2014)

Experiments:
[1] = system: VEGF; assay: VEGF release into culture medium (ELISA); assay type: cell-based, human; conditions: TOV21G, MRC-5, CCD-Lu and TPH-1 cells treated with activin-A, without or with sActRIIB; FIG. 17A
Description: (§1) The serum VEGF levels in inh-KO mice were measured by using immunoassay kit (R&D Systems), and the levels of human VEGF and Ang-1 in cell line culture medium were quantified using ELISA kits purchased from Invitrogen (VEGF) and R&D Systems (Ang-1), by following the manufacturers' recommended protocols.

[2] = system: VEGF transcripts; assay: VEGF mRNA in cell cultures (real-time RT-PCR); assay type: cell-based, human, bovine; conditions: TOV-21G, BAEC, MRC-5, CCD-Lu, U937 cultures treated with recombinant activin-A, without or with sActRIIB; FIG. 16A
[3] = system: Ang-1; assay: Ang-1 immunostaining in TOV-21G xenograft tumor sections; assay type: in vivo, mouse; conditions: treated vs untreated sections (strong immunostaining); FIG. 15A
Description: (§2) 5×10^6 TOV-21G ovarian cancer cells were implanted subcutaneously into individual female athymic nu/nu mice (Harlan). Treatment was initiated at day 12 after tumor implantation, when the average tumor volume reached approximately 150 mm^3. The mice received PBS, sActRIIB (30 mg/kg, SC, 1×/week) or activin-A antibody (30 mg/kg, SC, 2×/week). In a separate chemotherapy combination experiment, the mice were treated with PBS, sActRIIB (10 mg/kg, SC, 1×/week), 5-FU (50 mg/kg, IP, 3 cycles, 4 daily injections per cycle) or sActRIIB and 5-FU combination at the same doses above.
(§3) Zinc-formalin fixed paraffin tumor tissue sections of 4 μm in thickness were prepared. The sections were subjected to antigen retrieval by microwave 3 min in Unmask solution (Vector H-3300) followed by incubation in 10 μg/ml Proteinase-K for 20 min and in 1% H2O2 in dH2O for 10 min at room temperature. The sections were further incubated in 0.1% Tween-20 in PBS for 3 min to permeabilize the cell membrane and in goat serum for 30 min to block non-specific binding. The sections were then incubated at room temperature with specific primary antibody for 3 hours followed by incubation in biotinylated or fluorescently labeled secondary antibody. […] The immunostained tissue sections were analyzed and photographed using a Nikon Eclipse 90i microscope equipped with DS-Ril camera. […]

[4] = system: TOV-21G cells; assay: In vitro proliferation assay of TOV-21G cells (IncuCyte); assay type: cell-based, human; conditions: increasing concentrations; FIG. 14
Description: In vitro growth rates of TOV-21G cancer cells were analyzed by using a real-time live cell imaging system (IncuCyte) following the manufacturer's recommended protocol.

[5] = system: TOV-21G ovarian cancer xenografts; assay: TOV-21G ovarian cancer xenograft growth in nude mice; assay type: in vivo, mouse
Description: as §2
For all xenograft experiments, the tumor sizes were measured longitudinally by using an electronic caliper Immediately prior to the 1st dose, the tumor-bearing mice were randomized to ensure even distribution in tumor sizes across different groups. Tumor volumes (mm^3) were calculated as tumor length (mm)×tumor width (mm)×tumor height (mm) Tumor weights were determined by necropsy.
(§4) In another experiment, athymic nude mice received TOV-21G xenografts in the abdominal flank. After 14 days, subcutaneous hu-sActRIIB-Fc was administered weekly alone or in combination with 5-FU.

[6] = system: activin-A (βA) mRNA; assay: Northern blot of activin-A (βA) mRNA in tumors of inh-KO mice; assay type: in vivo, mouse; conditions: increase over WT controls, FIG. 5A
Description: (§5) 12-week-old female and 8-week-old male inh-KO mice with fully established ovarian or testicular tumors received a single injection of PBS or sActRIIB (30 mg/kg, SC). As a control, age-matched wild-type littermates received a single injection of PBS. Ovarian and testicular organ weights were determined by necropsy 14 days after the injection.
Total RNA was isolated from individual tissue samples after homogenization in Trizol (Invitrogen). A pool of 10 μg RNA for each group containing equal amounts of total RNA isolated from individual animals was subjected to Northern blot analysis. The northern probes used for βA and Ang-2 were generated by using RT-PCR (Phusion, Biolabs). βA primer set: 5′-CCCTTGCTTTGGCTGAGAGGA-3′ and 5′-TC ACA GGT CGT CGT AGG TCG-3′; Ang-2 primer set: 5′-TGT GCC GGG GAG AAG AG and 5′-TACAGTAGTGGGTTGAGGTTC-3′. To normalize the expression, northern blot membranes were re-probed with β-actin.

[7] = Body weight of TOV-21G xenograft-bearing mice; assay type: in vivo, mouse; conditions: TOV-21G xenograft-bearing athymic nude mice; during the course of the experiment; vehicle controls lost 10%
Description: as §4

[8] = system: osteopontin; assay: Western blot of osteopontin in ovarian tumors of inh-KO mice; assay type: in vivo, mouse; conditions: FIG. 8D
Description: as §5
Protein extracts were prepared from cell cultures or tissues in T-PER tissue protein extraction reagent (Pierce) containing a mixture of protease inhibitors (Roche). A pool of 50 μg total protein for each group containing equal amounts of protein extract isolated from individual animals was separated by NuPAGE 4-12% Bis-Tris gel (Invitrogen) and transferred to PVDF. The membranes were probed with primary antibodies against total Smad2, p-Smad2 or E-cadherin (1:1000; Cell Signaling), endoglin, osteopontin (1:500; R&D Systems), IGFBP-1, IGFBP-2 (1:500; Abcam) followed by HRP-conjugated secondary antibody (1:2000; Cell Signaling). The membranes were stripped and re-probed with antibody against α-tubulin (1:1000; Cell Signaling).

[9] = system: CD31; assay: CD31 immunostaining in TOV-21G xenograft tumor sections; assay type: in vivo, mouse; conditions: FIG. 15B
Description: as §2, §3

[10] = system: Ang-1; assay: Ang-1 release into culture medium (ELISA); assay type: cell-based, human; conditions: MRC-5 and CCD-Lu cells treated with activin-A, without or with sActRIIB; FIG. 17B
Description: as §1

[11] = system: Ang-1; assay: Ang-1 immunostaining in gonadal tumor sections of inh-KO mice; assay type: in vivo, mouse; conditions: ovarian and testicular tumors of inh-KO mice; FIG. 8B
Description: as §5
Zinc-formalin fixed paraffin tumor tissue sections of 4 μm in thickness were prepared. The sections were subjected to antigen retrieval by microwave 3 min in Unmask solution (Vector H-3300) followed by incubation in 10 μg/ml Proteinase-K for 20 min and in 1% H2O2 in dH2O for 10 min at room temperature. The sections were further incubated in 0.1% Tween-20 in PBS for 3 min to permeabilize the cell membrane and in goat serum for 30 min to block non-specific binding. The sections were then incubated at room temperature with specific primary antibody for 3 hours followed by incubation in biotinylated or fluorescently labeled secondary antibody. Substrate developed in Vector SG kit (SK-4700) or DAB and nuclear-counterstained in Vector Fast Red (H-3403) or in hematoxylin. The immunostained tissue sections were analyzed and photographed using a Nikon Eclipse 90i microscope equipped with DS-Ril camera. […]

B1: sActRIIB: extracellular domain of human activin type-2B receptor fused to IgG2 Fc, expressed in CHO cells; sequence in the 26th table (protein)
chain: ETRWCIYYNANWELERTNQGLERCEGEQDKRLHCYASWRNSSGTIELVKKGCWLDDFNCYDRQECVATEENPQVYFCCCEGNFCNERFTHLPEAGGPEVTYEPPPTAPTGGGGSVECPPCPAPPVAGPSVFLFPPKPKDTLMISRTPEVTCVVVDVSHEDPEVQFNWYVDGVEVHNAKTKPREEQFNSTFRVVSVLTVVHQDWLNGKEYKCKVSNKGLPAPIEKTISKTKGQPREPQVYTLPPSREEMTKNQVSLTCLVKGFYPSDIAVEWESNGQPENNYKTTPPMLDSDGSFFLYSKLTVDKSRWQQGNVFSCSVMHEALHNHYTQKSLSLSPGK
modifications: left off: a dimerising Fc or GST
With B1 as the molecule, how does the “release of VEGF into the culture medium” value [1] read?
Its value is “blocked completely”.

And the “levels of VEGF transcripts” value [2]?
Its value is “prevented this induction”.

What about the “Ang-1 immunostaining in TOV-21G tumor sections” value [3] of the same molecule?
Its value is “virtually none”.

And the “TOV-21G cell proliferation in vitro” value [4]?
Its value is “no direct effect”.

What about the tumor growth reduction ([5]; 52 days after tumor cell injection, versus vehicle-treated tumor-bearing group, p<0.0001, weekly SC hu-sActRIIB-Fc from day 14, alone or with 5-FU) of the same molecule?
Its tumor growth reduction is 43%.

And the “rate of tumor growth of TOV-21G xenografts” value ([5]; chemotherapy combination experiment, sActRIIB 10 mg/kg SC 1x/week, 5-FU 50 mg/kg IP 3 cycles, alone or together, FIG. 13)?
The value was “decreased the rate of tumor growth significantly”.

And the “growth of TOV-21G ovarian cancer xenografts” value ([5]; nude mice, sActRIIB 30 mg/kg SC 1x/week or activin-A antibody 30 mg/kg SC 2x/week from day 12, FIG. 10B)?
Its value is “significantly inhibited the growth”.

And the “βA transcripts in the tumors (Northern blot)” value [6]?
Its value is “completely blocked”.

What about the body weight increase [7] of the same molecule?
Its body weight increase is 26%.

What about the “osteopontin induction (Western blot)” value [8] of the same molecule?
Its value is “abolished completely”.

And the “CD31 immunostaining (newly formed microvessels) in TOV-21G tumor sections” value [9]?
Its value is “lack of such new microvessels”.

What about the “release of Ang-1 into the culture medium” value [10] of the same molecule?
Its value is “blocked completely”.

What about the “Ang-1 immunoreactivity in tumor sections” value [11] of the same molecule?
Its value is “completely abolished the VEGF and Ang-1 inductions”.
